Assay [1] concerns the target T1, SID2p peptide (APOL1 G332-L392, WT) (human).
T1 peptide: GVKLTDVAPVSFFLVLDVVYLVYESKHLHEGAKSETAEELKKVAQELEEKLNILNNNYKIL
Kind of assay: SPR. In general terms: Surface plasmon resonance follows binding to a sensor surface in real time, without labels.

The target of assay [2] is recombinant NCS-1 (not myristoylated) (UniProt P62166 1-190, biotin (EZ-Link NHS-PEG4-biotin) where bound to the streptavidin sensor). Kind of assay: BLI.
Sequence of recombinant NCS-1 (not myristoylated) (P62166 whole entry): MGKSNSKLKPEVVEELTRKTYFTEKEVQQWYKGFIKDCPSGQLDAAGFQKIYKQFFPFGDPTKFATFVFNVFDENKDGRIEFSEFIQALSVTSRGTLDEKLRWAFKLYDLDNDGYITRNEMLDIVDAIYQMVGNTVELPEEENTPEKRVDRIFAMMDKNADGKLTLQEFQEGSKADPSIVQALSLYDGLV

For LTDNEAWNGFVAAAELPRNEADELRKALDNLARQMIMK [LZ1p peptide (APOL1 L88-K125)], the binding result in assay [1] was “binds”.

B1: recombinant APOL3 (natural protein)
chain: MDSEKKRFTEEATKYFRERVSPVHLQILLTNNEAWKRFVTAAELPRDEADALYEALKKLRTYAAIEDEYVQQKDEQFREWFLKEFPQVKRKIQESIEKLRALANGIEEVHRGCTISNVVSSSTGAASGIMSLAGLVLAPFTAGTSLALTAAGVGLGAASAVTGITTSIVEHSYTSSAEAEASRLTATSIDRLKVFKEVMRDITPNLLSLLNNYYEATQTIGSEIRAIRQARARARLPVTTWRISAGSGGQAERTIAGTTRAVSRGARILSATTSGIFLALDVVNLVYESKHLHEGAKSASAEELRRQAQELEENLMELTQIYQRLNPCHTH
modifications: biotin (EZ-Link NHS-PEG4-biotin), only where APOL3 was the bound partner (Figure 5A)
The Kd is the equilibrium constant for the complex coming apart. For B1, the Kd in assay [2] was found to be 36.5 ± 2.6 nM.

The record behind these values is paper PMC7090385 (Cell Reports, 2020).
